Experimental data: the supplement of paper PMC12636428

test system: Saccharomyces cerevisiae; experiment: transcriptional activation domain activity (GFP:mCherry ratio, weighted mean of sorted bins, harmonized to initial dataset scale) (arbitrary fluorescence ratio units); higher = stronger transcriptional activation; conditions: beta-estradiol 1 µM; induction time 4 h
Procedure, shortened: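 Protein tiles carrying barcodes and fused to an estradiol-inducible synthetic transcription factor were placed at the URA3 locus of yeast diploids with a GFP reporter. Following 4 hours at 30 °C in SC with 1 uM beta-estradiol, cells were sorted into 8 GFP:mCherry bins, barcodes were sequenced, and tiles with fewer than 50 reads were discarded. Activation activity is given as the read-weighted mean of bin median fluorescence, averaged across barcodes and linearly mapped to the initial dataset scale.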

Sequence	transcriptional activation domain activity
IYESALQTEHHKQGIGRSIAEAVKNRELSGFDQFQQIISFCLCVLKQLYRRFT	37600
MYHISIQLLSVFISPSTPLFPDFLQISISFHLYSFFLFAIVIFFYFICLFLFV	61100
GAARVQVDFWFFLFVYYGLYNLTALIWITKVFNLYSLNWWPQSLGFPLTVSLI	61300
VNKSGSTYGEELSPKLDSSLVNDTTSLLLPQQPVFVSENVGSEFSSLNEFLSM	108000
AKAEAEIKTEAEVKAEAEAPADEEAQTAGGKKKKAKNKKKKKAAAAAAAAAEA	36300
CLLLAICCLYHVAFCIIVVLFWVAQVNAAPMEALQMVLAHVRYTFILSVSMVG	63500
EYAPKTPVVAAAVPKEEKKEEKAEEVKEAKEEENKEIKDEKKDTRKSRSASRK	< 6570
RQNEKTETGKAEARTRRETGARKEHAKSGDRNAKENRNGERKQREHEKDKDGG	26000
MSLLYYMVQSTTTMLLLTPPLCFTFFFIFFLLIFLFFIFYFLFLFYFINRDQS	47600
AEAEKMDVDPAVSTAETEVKQESPAPAAATSVSTPEVKVTPSSAHPSLPAKPL	18400
ELGSFRLLSFRVWCLLGTGSFWGLLYTAIAKMDGYTFGFLLQAHHVLKLLLVS	54400
MFALLEILCLICILLLTKPRCLCFSIRLEILIFFSFFFFFFCIFLVGYTLSTL	80600
PYIALIVLDVILIKLGSGRHIEYIQYVLTRATVKETEVLDFYAHIIYTTTLLI	28800
EEEERKQNEKRERAEERRKEKLEEEKEKREKDRKETEKKGGKGKGEQGKGKEK	17200
APSAARRSHTKSSPSSGTSPSGPPSARTSSRCTPPPRSSSPSGRRRSSCCKRS	45900
SQVIKILTLLFFFLNLLFFVLICAATVARYCMFPQLWPIMLNHPSQSLFIGAF	60600
SNGTNNSGNMNTNADYESFFNTGTNNSNSNQNPYFLSSRNNSLKFNPEDFDFQ	59100
GVERNHLSVFRPVSFSFSSWFMLLLFFCFRGVELVILFPDCSWFLCIPLFYSF	67700
KPTNQTEFDWQVFQQQAFLQQQLAQHNLQAYLSSLNTDTMTNRSPSKSSSIST	66300
MCDLFYTHLISPLFPNMPFWVFFCRLFLLFSLLQCSFICGPFVAVLSYCWLSF	54600
LPNFLKLGLTTLYSAIGFDEWPSDAVKWAYYFSNIRMVRSWSSWDLYQHLVPW	45500

Sequence	transcriptional activation domain activity
MRDNQYPPYLLSVVHFTCQPPFGVRNLHSPIFILFQYVPHVLLIHFSSFVIFF	64300
MSWIVWSGKHIHMSCNFIFIICPNNMKYMLSVFWRWFYKRSVIWKVWIRLFFI	47600
DKKNVDINEFLLDESVSNLFTTRQIDLFKKNVNLYSPLFQNQKDAVSSTSLTP	81800
TWPYSSLSELEDLMDRFKRMLTLLRMHLKHVAELEVMVTLWKYMGVLLEFLGS	61800
GEGEGEVEAEVPTAAANEPVLEVQPKEPEPEAPAQPQQQPAAVKTTRPAPVSH	28800
DWESIGAASLRNNSLAPNIDSVASSTNGVVSPKPTNPSFTNSQNGDIEPPLQH	46900
SDNGTENNGETKKRYDPKDPLRPRRKKARRACYACQRAHLTCGDERPCQRCIK	16400
MLPSPGETKNHAKSQSEIIQMLTDEFWANYNSGWEELINQSEFSTLFDDYKDN	116000
PATTSPAPRGLTASGQPRKKPGPKPKLKDPNAPEPEKKARKARKVVEAKDPAV	< 6570
TDAGPGEEDEEVVHEVRAKALRHVPVKPDDDADSKKKNNSPWQPEGLGPLRIL	34200
MTSYVHQALVRFIGVTLTYQEYKEKLGRSFYLRNLAENTTMLGFLCWVNILHF	33800
MSEPPRKRAKLACVTCNARRVKCDVTDRHPCSNCAAGNVECETRESRRGKHIR	24000
PPPPPPPPPGPSPARFAPPPAPPPPPPPSGRPAPPPAPPPPPPPPPPAFGGGP	17000
FFLLRNGFIFEDMARYRFYTCSQLWLWLIFLAVRSEIGLQRVYVFFVFMLFQV	49800
VIDGSYTTSLKMILFLLAISGQNLLFFFILISLTFLLFLFSTCLCMILLDALI	22100
LCASSLIWMTVSRHHLPPTIANLPATTLLILTFISLLLSIFLQFLFWALLFFW	65300
TLHHKHVVLWNTSRQVATEVIRLPFSCSGKMLCLLLLPEAEDGLKRVHVVALS	25600
KQYCVRPNSGRIEPGKSVEVTVLLQAMKQEPPMDAKCRDKFLVQSVAVTADKE	31600
RSGYGSRDLYEYDLIEVRRTQVETALILTGLISLMKTNRSRERYVHTEHVTGT	39500
RKPETAGEGSGAEGASGGENHRRGSTRGRGRGRGRGGRSSRGGRSRKDGAGAE	33500
ESGSGSGSESGDSKDTAKAQGRGRKRGRESENHSSEDEEESVERKPRKARKFR	36100

Sequence	transcriptional activation domain activity
KYLSTCLKSCNTQLLDGILNTFARIFLSLGHLVEIMPELGTSILFQTYLFALQ	52900
VRWIRVRKHIVMAATLAEPFTESIVLVVIGSSSLKYLVGLPRWLCILVHFFLL	35900
ILENKGLNEDLSSHIYEKEAPKFDSDIDISRFGTNDAVIFNNDGWDTSLPIDF	102000
PWTFDLGLFGLGLFGLFGLFGLFGLFGLGPFGLGLFGPLDFLALDFLDLWTFW	18400
ENEQDSLALDDLDRAFELVEGMDMDWMMPSHAHHSPATTATIKPRLLYSPLIH	74200
MPLPLIFVYLSGQMLSFLGSLFGVYMYFASLVLNYLGLFSSLRLRLWSFFLTA	66200
HAGTMESHPHTNIHEELKEFLSGDLIEAEDNAKLMFGDDNSNPADYLLEFGSG	72500
MCQWWQIVLIRWMNLQILKYWAVEVKPLMMMWRRLIVIIIVILYRNFFFFFLM	30900
EVMKVTPVQKQTRAGQRTRFKAFVAIGDYDGHVGLGVKCAKEVASAIRGAIIL	48700
RARCIPSAPTRRPLTRSTSTCRRPPRTTGSCWTSSRPSSTPKTSSSAAKPAPC	46200
GGSGASPPPPDNRPPEERYAEQLRQLNDMGFYDFDRNVAALRRSGGSVQGAIE	29100
GTAHHHDPNDPKRPRACEACRGLKVRCEPDPTNPNPDGPCKRCAKAGRACLVT	< 6570
RTTALGVWFLLIQSLWYFTFGALYIWFFCHTWEYLSTLLVFDYLLRFILCLMF	68100
AREGARIRIVNRTVTVGKRTMSARSEVYDADNSRLVASGSHSKMTGSQPETRL	17700
MFCLRSWIPILFFLLRTNASPVYLILFLSATYFLNRPCVYCSFLLLILVIALF	59500
GGGGDNAAAGEKNSSSSSNSHHNSSKKSGRGGRSNSESRNEGGGRSTAGGGSA	31800
VCLSLYIITCVFGWLLYFITATLSYYYVFDHDYMKHPKFLKNQIRLEINCAAS	76600
FTSPLPFALVPLFMYGDAQNWCWFTKQNTLYGIYLWFMWLWILFAFNLVCLFF	56600
AANKNAKRREARKKAAAAAGEGNEEDKGASAETKEDKSAEVKEKENVKPASEK	29600
DFLLSLHGIRTVYLFMFVINSFLHPLRTLIHLWCLIFISVYQHRLFFFFFFFF	61200
MGYGEQRGSFGGRGGRGGSRGGRGGFGGGDRFNQGPPSEVVVVGAFVSACEGE	52900

Sequence	transcriptional activation domain activity
ISSSEKESDGENDSDSEENEQNDQSEIFPEFLGRRDPWQAVTVFILALLVFRN	66500
NTPPAKKKRDGKKKAAAAGDMGEGEGGGKKVRKPRKDAGTKRGPNKRTAGATG	41100
FLLSILFLLSFFYSFFSFSLFIFDRLCQFSHFVDLPSLHYLSLCVFLSILCLF	37100
QLMESVSELDLPPLTLDEPPQAIKFNLNLFNNDPSGQQQQQQQQQQNSTSSTI	29000
TRVMAEENGMTVDEKAFEEAQEAAKEASRKARGGKGGEEAVALDVHDLAALEK	36200
VVTRWILFIVPMLGIVWIPGILSLTTFPHATVWGVKLIWWSIWLSVVWGGWWV	38300
DNYILNNENDDGLDNLLGMDYYNIDDLLTQELRDLDIPLVPSPKTGDGSSDKK	109000
MLLPVSYSWLPLLFIPTNASPAFIFLFFVCTYFLNRPCVYCSFLLLILFVTSC	42200
GPASGASKPKRRYVRKRKEPEEGAGVDNAEASSMAPKPKRQRKKKAPMAEARN	21900
HMESDEEKERKPKKARKQKAEGSGDEAEPKKKRRGKLKRGGGDHEEAAVAAGE	39200
QTTDLVQWLAMPCNLPWVVYVLDRVRNLLRFVIVLSEVEITEDLKRRIMAIYT	77400
AKLALILVLFEVYVKWFKLEKLYGRSDFLLVESLHYQYFCILCLCVVEFVIWH	45300
NGPRRNNNTPNNSPLNPGENGTSRPPRQRNPRNRPPRPRTQDNAPEPSEPASG	19800
MVFFFFFFFLEGGGLVGWLCSALIFPLSFFLSSKLCLLLPLYYYSNCVFFFLC	75600
MNFWAWFFFFFYSLLILITSFLSFVFFFSLFLFWFLFLFLFPFLSLLIFPLPS	41100
PTAPNSSLPGCDVWDDIVTAAYYVNPCFNFYHLIDFCPYLWDELGFPSLAWGP	72200
RANMSTQKLAASASRQINAVVVSAGLMEKTVKVRIGQQKWNAHIRKHFNRTSH	44400
ERGTEEREKEREEGMRGRRGKRNRGRWKREGEEEGGEEEGRKGRKEKGRQGAE	47700
ESERHSRRRKSVKGKGKAKEVQKKRASKDKTSKRKGKGEKRKRGEEEGRSANK	60200
MLDLLVVHFPISNGLIEDNDLKVLVKAAVGVVLRKDMSLNRRLYAWLLGAQEG	44600
